From US20070099822A1, “Regulation of tissue mineralization and phosphate metabolism by asarm peptides” (priority 2003, published 2007)
Entries after “also recorded” stand apart in the source; their conditions may differ.

Experiments:
chip-immobilized MEPE = target: T1, chip-immobilized MEPE (Homo sapiens, UniProt Q9NQ76); experiment: Surface plasmon resonance, secPHEX analyte on chip-immobilized MEPE; type: binding
T1 construct: Purified protein contained N-terminal amino acid residues APTFQ confirming cleavage of predicted nascent-MEPE signal-peptide; made in house; host or cells: Spodoptera frugiperda (sf9) insect cells, baculovirus
T1 sequence (Q9NQ76 18-525): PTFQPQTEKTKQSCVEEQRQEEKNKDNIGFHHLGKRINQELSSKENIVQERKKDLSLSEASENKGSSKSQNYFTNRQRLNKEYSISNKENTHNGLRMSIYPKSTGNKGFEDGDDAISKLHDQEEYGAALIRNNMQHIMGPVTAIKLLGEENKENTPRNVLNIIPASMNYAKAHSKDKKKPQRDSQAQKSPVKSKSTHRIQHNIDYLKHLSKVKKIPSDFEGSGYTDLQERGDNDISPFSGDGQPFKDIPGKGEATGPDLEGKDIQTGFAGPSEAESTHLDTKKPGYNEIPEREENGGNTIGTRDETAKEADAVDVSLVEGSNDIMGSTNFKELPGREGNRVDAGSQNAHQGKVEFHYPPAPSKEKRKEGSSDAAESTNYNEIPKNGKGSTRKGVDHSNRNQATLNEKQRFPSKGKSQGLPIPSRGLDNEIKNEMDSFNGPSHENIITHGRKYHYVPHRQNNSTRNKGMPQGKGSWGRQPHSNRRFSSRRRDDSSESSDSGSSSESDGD
From the text: (§1) Surface Plasmon Resonance (SPR). A Biacore 3000 SPR instrument (Biacore, Piscataway, N.J.) in conjunction with CM5 research grade chips were used to conduct the Surface Plasmon Resonance (SPR) experiments, as previously described (Morgan, et al., A conserved clathrin assembly motif essential for synaptic vesicle endocytosis, J Neurosci 20(23):8667-8676, 2000; Morgan, et al., Uncoating of clathrin-coated vesicles in presynaptic terminals: Roles for Hsc70 and auxilin, Neuron 32(2):289-300, 200 1; Morgan, et al., Eps15 homology domain-NPF motif interactions regulate clathrin coat assembly during synaptic vesicle recycling, J Biol Chem 278(35):33583-33592, 2003). The experiments were performed at 25° C. using Biacore (Piscataway, N.J.) buffer (10 mM HEPES pH 7.4, 150 mM NaCl, 0.005% surfactant P20) supplemented with 2 mM ZnCl2 (HBS-P-Zn) or without ZnCl2 (HBS-P) as indicated. Injected samples also contained 2 mg/mL carboxymethyl-dextran to reduce non-specific association with the dextran matrix of the chip and a flow rate of 5 μL/min was used. The surfaces of research grade CM5 chips were activated by a 6 min injection of a solution containing 0.2M N-ethyl-N9-(dimethylaminopropyl) carbodiimide and 0.05M N-hydroxy-succinimide. MEPE, PHEX and IgG were immobilized on the same chip (ligands) in different individual flow-cells. Each chip contains four separate flow-cells, one cell was left blank as a negative control. The experiments were repeated on two different chips with 3500 RU (response-units) and 6000 RU of immobilized proteins respectively. The response unit or RU is a measure of surface charge density-oscillation and surface-plasmon-positron generation as detected by changes in incident refractive-index monitored by the Biacore optical unit. Specifically, 1000 RU unit equals a change of approximately 1 ng/mm^2 in surface protein concentration on the chip surface. After immobilization, each surface was blocked by a 6 min injection of 1 M ethanolamine at pH 8.5. […]

chip-immobilized secPHEX = target: T2, chip-immobilized secPHEX (Homo sapiens, UniProt P78562); experiment: Surface plasmon resonance, secPHEX analyte on immobilized secPHEX; type: binding; conditions: 2 uM secPHEX
T2 construct: to generate a soluble, secreted form of PHEX; made in house; gift of Crine and Boileau, University of Montreal
T2 sequence (P78562 46-749 limits assumed): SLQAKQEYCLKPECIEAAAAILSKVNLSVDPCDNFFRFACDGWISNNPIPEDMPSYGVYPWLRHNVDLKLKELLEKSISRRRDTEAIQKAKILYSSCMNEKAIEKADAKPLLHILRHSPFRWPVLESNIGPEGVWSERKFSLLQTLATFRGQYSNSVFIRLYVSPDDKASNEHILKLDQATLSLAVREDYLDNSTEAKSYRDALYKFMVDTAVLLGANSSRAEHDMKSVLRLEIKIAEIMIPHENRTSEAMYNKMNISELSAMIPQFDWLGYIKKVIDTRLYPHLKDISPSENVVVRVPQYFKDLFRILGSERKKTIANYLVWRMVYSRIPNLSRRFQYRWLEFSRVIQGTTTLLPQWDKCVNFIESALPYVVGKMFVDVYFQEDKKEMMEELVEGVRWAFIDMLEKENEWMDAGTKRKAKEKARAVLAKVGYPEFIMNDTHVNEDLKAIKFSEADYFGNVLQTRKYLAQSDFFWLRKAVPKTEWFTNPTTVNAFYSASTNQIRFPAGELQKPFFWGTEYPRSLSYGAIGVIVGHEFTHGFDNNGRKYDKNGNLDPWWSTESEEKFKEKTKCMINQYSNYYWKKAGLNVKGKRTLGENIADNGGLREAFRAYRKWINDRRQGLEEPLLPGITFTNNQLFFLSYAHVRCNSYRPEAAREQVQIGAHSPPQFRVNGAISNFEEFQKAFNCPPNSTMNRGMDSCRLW
From the text: (§2) Surface Plasmon Resonance (SPR). A Biacore 3000 SPR instrument (Biacore, Piscataway, N.J.) in conjunction with CM5 research grade chips were used to conduct the Surface Plasmon Resonance (SPR) experiments, as previously described (Morgan, et al., A conserved clathrin assembly motif essential for synaptic vesicle endocytosis, J Neurosci 20(23):8667-8676, 2000; Morgan, et al., Uncoating of clathrin-coated vesicles in presynaptic terminals: Roles for Hsc70 and auxilin, Neuron 32(2):289-300, 200 1; Morgan, et al., Eps15 homology domain-NPF motif interactions regulate clathrin coat assembly during synaptic vesicle recycling, J Biol Chem 278(35):33583-33592, 2003). The experiments were performed at 25° C. using Biacore (Piscataway, N.J.) buffer (10 mM HEPES pH 7.4, 150 mM NaCl, 0.005% surfactant P20) supplemented with 2 mM ZnCl2 (HBS-P-Zn) or without ZnCl2 (HBS-P) as indicated. Injected samples also contained 2 mg/mL carboxymethyl-dextran to reduce non-specific association with the dextran matrix of the chip and a flow rate of 5 μL/min was used. […] The response unit or RU is a measure of surface charge density-oscillation and surface-plasmon-positron generation as detected by changes in incident refractive-index monitored by the Biacore optical unit. […]

[1] = target: T3, full-length insect-expressed human-MEPE (Hu-MEPE) (human, UniProt Q9NQ76 18-525); experiment: SPR (Biacore 3000), MEPE immobilized on CM5 at 3500 RU, secPHEX analyte, HBS-P-Zn (2 mM ZnCl2)
T3 construct: also called recombinant Hu-MEPE; Matrix Extracellular Phosphoglycoprotein
T3 sequence: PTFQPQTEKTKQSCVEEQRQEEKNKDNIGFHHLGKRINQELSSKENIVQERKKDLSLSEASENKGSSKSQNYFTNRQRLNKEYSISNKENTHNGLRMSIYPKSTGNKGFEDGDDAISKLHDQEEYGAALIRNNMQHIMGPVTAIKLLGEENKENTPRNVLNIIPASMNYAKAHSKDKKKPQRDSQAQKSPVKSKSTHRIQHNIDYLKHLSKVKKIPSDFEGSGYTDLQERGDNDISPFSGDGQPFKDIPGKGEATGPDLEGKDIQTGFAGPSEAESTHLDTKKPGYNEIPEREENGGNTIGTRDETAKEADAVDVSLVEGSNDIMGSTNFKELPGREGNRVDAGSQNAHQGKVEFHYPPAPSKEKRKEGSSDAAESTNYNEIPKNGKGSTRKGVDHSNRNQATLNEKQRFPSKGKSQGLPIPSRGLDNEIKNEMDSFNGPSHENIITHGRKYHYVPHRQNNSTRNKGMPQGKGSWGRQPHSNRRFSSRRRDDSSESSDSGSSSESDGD
Protocol: as §1, with “The” for “Surface Plasmon Resonance (SPR). A Biacore 3000 SPR instrument (Biacore, Piscataway, N.J.) in conjunction with CM5 research grade chips were used to conduct the Surface Plasmon Resonance (SPR) experiments, as previously described (Morgan, et al., A conserved clathrin assembly motif essential for synaptic vesicle endocytosis, J Neurosci 20(23):8667-8676, 2000; Morgan, et al., Uncoating of clathrin-coated vesicles in presynaptic terminals: Roles for Hsc70 and auxilin, Neuron 32(2):289-300, 200 1; Morgan, et al., Eps15 homology domain-NPF motif interactions regulate clathrin coat assembly during synaptic vesicle recycling, J Biol Chem 278(35):33583-33592, 2003). The”, “ZnCl₂” for “ZnCl2”, “ng/mm²” for “ng/mm^2”

IgG = experiment: Surface plasmon resonance, secPHEX analyte on immobilized IgG; type: binding; conditions: same chip
From the text: as §2

B1: mammalian expressed human recombinant secreted PHEX (secPHEX) (enzyme, UniProt P78562 46-749, looked up)
chain: SLQAKQEYCLKPECIEAAAAILSKVNLSVDPCDNFFRFACDGWISNNPIPEDMPSYGVYPWLRHNVDLKLKELLEKSISRRRDTEAIQKAKILYSSCMNEKAIEKADAKPLLHILRHSPFRWPVLESNIGPEGVWSERKFSLLQTLATFRGQYSNSVFIRLYVSPDDKASNEHILKLDQATLSLAVREDYLDNSTEAKSYRDALYKFMVDTAVLLGANSSRAEHDMKSVLRLEIKIAEIMIPHENRTSEAMYNKMNISELSAMIPQFDWLGYIKKVIDTRLYPHLKDISPSENVVVRVPQYFKDLFRILGSERKKTIANYLVWRMVYSRIPNLSRRFQYRWLEFSRVIQGTTTLLPQWDKCVNFIESALPYVVGKMFVDVYFQEDKKEMMEELVEGVRWAFIDMLEKENEWMDAGTKRKAKEKARAVLAKVGYPEFIMNDTHVNEDLKAIKFSEADYFGNVLQTRKYLAQSDFFWLRKAVPKTEWFTNPTTVNAFYSASTNQIRFPAGELQKPFFWGTEYPRSLSYGAIGVIVGHEFTHGFDNNGRKYDKNGNLDPWWSTESEEKFKEKTKCMINQYSNYYWKKAGLNVKGKRTLGENIADNGGLREAFRAYRKWINDRRQGLEEPLLPGITFTNNQLFFLSYAHVRCNSYRPEAAREQVQIGAHSPPQFRVNGAISNFEEFQKAFNCPPNSTMNRGMDSCRLW
notes: Gift from Crine and Boileau; Used as SPR analyte and also immobilized as ligand; also called soluble mammalian expressed PHEX
binding of secPHEX to MEPE in buffer lacking ZnCl2 (chip-immobilized MEPE; HBS-P, secPHEX up to 10 uM): No interaction | binding of secPHEX to MEPE (chip-immobilized MEPE; HBS-P-Zn buffer, saturation at 10 uM secPHEX): dose dependent | Bmax of secPHEX binding to immobilized MEPE (chip-immobilized MEPE; MEPE 3500 RU): 680 RU | interaction of secPHEX analyte with chip-immobilized secPHEX (chip-immobilized secPHEX): very low-level barely-detectable autologous-interaction | EC50 [1]: 553 nM | interaction of secPHEX with control IgG (IgG): no significant signals; also recorded: No interaction
